T1: Aktide biosensor RRRRRSVDSHGGKbiotinGG (SEQ ID NO:11)
T1 sequence: RRRRRSVDSHGGKGG

T2: candidate biosensor peptide substrate WHLQTWCGYGGKbiotinGG (SEQ ID NO:12)
T2 chain: WHLQTWCGYGGKGG

B1: LKB1 serine/threonine kinase (Liver Kinase B1) (protein)
chain: MEVVDPQQLGMFTEGELMSVGMDTFIHRIDSTEVIYQPRRKRAKLIGKYLMGDLLGEGSYGKVKEVLDSETLCRRAVKILKKKKLRRIPNGEANVKKEIQLLRRLRHKNVIQLVDVLYNEEKQKMYMVMEYCVCGMQEMLDSVPEKRFPVCQAHGYFCQLIDGLEYLHSQGIVHKDIKPGNLLLTTGGTLKISDLGVAEALHPFAADDTCRTSQGSPAFQPPEIANGLDTFSGFKVDIWSAGVTLYNITTGLYPFEGDNIYKLFENIGKGSYAIPGDCGPPLSDLLKGMLEYEPAKRFSIRQIRQHSWFRKKHPPAEAPVPIPPSPDTKDRWRSMTVVPYLEDLHGADEDEDLFDIEDDIIYTQDFTVPGQVPEEEASHNGQRRGLPKAVCMNGTEAAQLSTKSRAEGRAPNPARKACSASSKIRRLSACKQQ

Experiments:
[1] = tested on: T1, Aktide biosensor RRRRRSVDSHGGKbiotinGG (SEQ ID NO:11)
[2] = molecular target: T2, candidate biosensor peptide substrate …
[3] = molecular target: the other five peptides (of six candidate biosensors peptides screened with LKB1)

Row | Molecule | phosphorylation of the peptide in a time-course in vitro kinase assay (MALDI/TOF/TOF-MS; 0, 30, 60, 120 min) [1] | phosphorylation of the peptide in an in vitro kinase assay (MALDI/TOF/TOF-MS) [1] | phosphorylation of the peptide in an in vitro kinase assay (LC ESI-MS) [2] | phosphorylation of the peptide in an in vitro kinase assay screen with LKB1 [3]
1 | Akt serine/threonine kinase (protein kinase B) | Nearly complete conversion to phosphorylated product was observed after 2 hr. | this peptide sequence is able to be efficiently phosphorylated by Akt over a 2 hr kinase assay | – | –
2 | B1 | – | – | this initial peptide sequence is able to be partially phosphorylated by LKB1 after a 3 hr reaction | Out of these six, one sequence, WHLQTWCGYGGKbiotinGG (SEQ ID NO:12), was shown to be partially phosphorylated by LKB1 after a 3 hr reaction.

Source: patent US20180282372
